Here are results for 53 sequences from the supplement of paper PMC11780869.

This series relates to Bacillus subtilis. Nature of the series: cleaved RNA product abundance (RNA/gDNA barcode ratio) relative to median wild-type variant (ratio to wild type); higher = more accumulation of the downstream cleavage product. Put shortly: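 Reporter mRNAs based on truncated aprE or tetM carried barcoded, mutagenized RNase Y cleavage-site windows built from oligos with a 9% error rate and were integrated into the B. subtilis chromosome. Cultures grew in LB at 37°C from OD600 0.0003 to 0.3. Cleaved RNA was gel-selected, reverse transcribed and barcode-sequenced together with genomic DNA barcodes, and UMIs were collapsed. Cleaved product abundance is the per-construct ratio of RNA to gDNA barcodes, scaled to the median of constructs carrying the unmutated site.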

Where [1] appears, read: experiment (reporter, strain, medium): exp 4a: truncated aprE reporter, strain BJT201 with 2% xylose (RNase J1 expressed), cleavage site: cggR-gapA (positions -7 to +36 mutated).
[2] abbreviates: experiment (reporter, strain, medium): exp 8a: truncated aprE reporter, strain BJT201 with 2% xylose (RNase J1 expressed), cleavage site: glnRA (positions -5 to +31 mutated).
[3] abbreviates: experiment (reporter, strain, medium): exp 2b: truncated aprE reporter, strain BJT200, cleavage site: cggR-gapA (positions -7 to +36 mutated).
Setting [4] is: experiment (reporter, strain, medium): exp 6: tetM reporter, strain 168, cleavage site: cggR-gapA (positions -7 to +36 mutated).

Turning to “ACAGACGAAGGAGCCGCAAAGAAGTTATTAAGGGATGAATATTCCCTAAATATAAATATCTCTCACTTATTTAAA”, under setting [1], the “cleaved RNA product abundance” value worked out at 0.462. The same measure, in the same setting: the result for “ACAGACGAAGGAGCCGCAAAGAAGTTATTAAGTTATGAATAATCCCTCAATATAAATAACTCTCACTTATTTAAA” reads 0.117. In the case of “ACAGACGAAGGAGCCGCAAAGAAGTTATTAAGGGATGACTACTCCCTCAATATAAATATCTCTCACTTATTTAAA”, the “cleaved RNA product abundance” value under setting [1] was 0.446. As for “CGACATGTCCCGCTTCTTTCATTAATCCGTTAGCAACTTTATTGCTATATACATTTACCTTTTAAGAGGAGGAAT”, the “cleaved RNA product abundance” value under setting [2] amounted to 0.922. Same read-out and setting: the value for “CGACATGTCCCGCTTCTTTCATTAATCCGTTAGCAACTGTTTTTCTATATACATTTACCTTTTAAGAGGAGGAAT” was 0.576. As for “ACAGACGAAGGAGCCGCAAAGAAGTTATTAAGGGATGAATAATTACTCAATATAAATATCTCTCACTTATTTAAA”, the “cleaved RNA product abundance” value under setting [3] was found to be 0.0971, the “cleaved RNA product abundance” value under setting [1] is 0.137 and the “cleaved RNA product abundance” value under setting [4] was determined as 0.11. Turning to “ACAGACGAAGGAGCCGCAAAGAAGTTATTAAGGGATGAATAAACCCACAATATAAATATCTCTCACTTATTTAAA”, the “cleaved RNA product abundance” value by setting is: under setting [3], 0.143; under setting [1], 0.0828. On to “ACAGACGAAGGAGCCGCAAAGAAGTTATTAAGGGATGTATAATCCCTCAATTTAAATATCTCTCACTTATTTAAA”, for which the “cleaved RNA product abundance” value runs as follows: under setting [3], 0.218; under setting [1], 0.146. On to “ACAGACGAAGGAGCCGCAAAGAAGTTATTAAGTGATGAATATTCCCTAAATATAAATATCTCTCACTTATTTAAA”, for which the “cleaved RNA product abundance” value under setting [3] was determined as 0.115.

Regarding “ACAGACGAAGGAGCCGCAAAGAAGTTATTAAGGGATGAATAATCCCTCAATATAATTATCTCTCACTTATTTAAA”, the “cleaved RNA product abundance” value runs as follows: under setting [3], 0.673; under setting [1], 0.491; under setting [4], 0.338. Regarding “ACAGACGAAGGAGCCGCAAAGAAGTTCTTAAGGCATGAATAATCCCTCAATATAAATATCTCTCACTTATTTAAA”, the “cleaved RNA product abundance” value under setting [3] turned out to be 0.092 and the “cleaved RNA product abundance” value under setting [1] was found to be 0.122.

In the case of “ACAGACGAAGGAGCCGCAAAGAAGTTTTTAAGGGATGAATATTCCCTCAATATAAATATCTCTCACTTATTTAAA”, the “cleaved RNA product abundance” value came to 0.214 under setting [3] and 0.341 under setting [1]. As to “CGACATGTCCCGCTTCTTTCATTAATCCGTTAGCAACTGTTTTTCTATATACATTTACATTTTAAGAGGAGGAAT”, under setting [2], the “cleaved RNA product abundance” value was 0.576. In the case of “ACAGACGAAGGAGCCGCAAAGAAGTTATTACGGGAAGAATAATCCCTCAATATAAATATCTCTCACTTATTTAAA”, the “cleaved RNA product abundance” value by setting is: under setting [3], 0.152; under setting [1], 0.322.

With “ACAGACGAAGGAGCCGCAAAGAAGTTATTAAGTGATGAATAATCCCTCAAAATAAATATCTCTCACTTATTTAAA”, the “cleaved RNA product abundance” value by setting is: under setting [3], 0.102; under setting [1], 0.124. For “ACAGACGAAGGAGCCGCAAACAAGTTATGAAGGGATGAATAATCCCTCAATATAAATATCTCTCACTTATTTAAA”, the “cleaved RNA product abundance” value under setting [1] was 0.239.

For the sequence “ACAGACGAAGGAGCCGCAAAGAATTGATTAAGGGATGAATAATCCCTCAATATAAATATCTCTCACTTATTTAAA”, the “cleaved RNA product abundance” value under setting [1] was 0.439. As to “ACAGACGAAGGAGCCGCAAAGAAATTATTAAGGGTTGAATAATCCCTCAATATAAATATCTCTCACTTATTTAAA”, under setting [1], the “cleaved RNA product abundance” value worked out at 0.365. As for “CGACATGTCCCGCTTCTTTCATTAATCCGTTAACAACTGTGTTGCTATATACATTTACCTTTTAAGAGGAGGAAT”, the “cleaved RNA product abundance” value under setting [2] turned out to be 0.24.

Consider “CGACATGTCCCGCTTCTTTCATTAATCCGTTAGCAATTGTTTTGCTATATACATTTACTTTTTAAGAGGAGGAAT”, for which the “cleaved RNA product abundance” value under setting [2] is 1.01. As for “ACAGACGAAGGAGCCGCAAAGAAGTTATTTATGGATGAATAATCCCTCAATATAAATATCTCTCACTTATTTAAA”, the “cleaved RNA product abundance” value under setting [1] came to 0.165. Still for that read-out and setting: the value for “ACAGACGAAGGAGCCGCAAAGAAGTTATTAAGGGATGTATAATCCCTCAATATAAAAATCTCTCACTTATTTAAA” was 0.439; that for “ACAGACGAAGGAGCCGCAAAAAAGTTATTAACGGATGAATAATCCCTCAATATAAATATCTCTCACTTATTTAAA” was 0.128. For the sequence “CGACATGTCCCGCTTCTTTCATTAATCTTTTAGCAACTGTTTTACTATATACATTTACCTTTTAAGAGGAGGAAT”, the “cleaved RNA product abundance” value under setting [2] amounted to 0.94. Consider “ACAGACGAAGGAGCCGCAAGGAAGTTATTAAGGGATGAATAATCTCTCAATATAAATATCTCTCACTTATTTAAA”, for which, under setting [1], the “cleaved RNA product abundance” value was determined as 0.86.

For the sequence “ACAGACGAAGGAGCCGCAAAGAAGTTATTAAGGGATGAATAATCCGTCAATATAATTATCTCTCACTTATTTAAA”, under setting [1], the “cleaved RNA product abundance” value turned out to be 0.119. On to “ACAGACGAAGGAGCCGCAAAGTATTTATTAAGGGATGAATAATCCCTCAATATAAATATCTCTCACTTATTTAAA”, for which the “cleaved RNA product abundance” value reads like this: under setting [3], 0.85; under setting [1], 0.594. Take “ACAGACGAAGGAGCCGCAAAGAAGTTATTAAGGGATGAATAATACCCCAATATAAATATCTCTCACTTATTTAAA”: under setting [1], the “cleaved RNA product abundance” value turned out to be 0.149. For the sequence “ACAGACGAAGGAGCCGCAAAGAAGTTAGTAAGGGAGGAATAATCCCTCAATATAAATATCTCTCACTTATTTAAA”, the “cleaved RNA product abundance” value reads like this: under setting [3], 0.123; under setting [1], 0.199. “ACAGACGAAGGAGCCGCAAAGAAGTTATTAAAGGGTGAATAATCCCTCAATATAAATATCTCTCACTTATTTAAA”: the “cleaved RNA product abundance” value under setting [1] came out at 0.202. Take “CGACATGTCCCGCTTCTTTCATTATTCCGTTAGCAACTGTTTTGTTATATACATTTACCTTTTAAGAGGAGGAAT”: the “cleaved RNA product abundance” value under setting [2] turned out to be 0.541. Regarding “ACAGACGAAGGAGCCGCAAAGAAGTTATTAAGGGATTATTAATCCCTCAATATAAATATCTCTCACTTATTTAAA”, the “cleaved RNA product abundance” value stood at 0.957 under setting [3] and 1.09 under setting [1]. Turning to “CGACATGTCCCGCTTCTTTCATTAATCCGTTCGCAACTGTTATGCTATATACATTTACCTTTTAAGAGGAGGAAT”, under setting [2], the “cleaved RNA product abundance” value turned out to be 0.349. The same measure, in the same setting: the value for “CGACATGTCCCGCTTCTTTCATTATTTCGTTAGCAACTGTTTTGCTATATACATTTACCTTTTAAGAGGAGGAAT” was 1.59. Same read-out and setting: the value for “CGACATGTCCCGCTTCTTTCATTAACCCGTTAGCAACTGTTTTGCTATATAGATTTACCTTTTAAGAGGAGGAAT” was 0.53; that for “CGACATGTCCCGCTTCTTTCATTAATCCGTTAGCAACTGCTTTGCTATATACATTTACCTTTTAAGAGGAGGAAT” was 0.307. Consider “ACAGACGAAGGAGCCGCAAAGAAGTTATCAAGGGATGAATAATCCCTCAATATAATTATCTCTCACTTATTTAAA”, for which, under setting [1], the “cleaved RNA product abundance” value was determined as 0.218.

As to “CGACATGTCCCGCTTCTTTCATTACTCCGTTAGTAACTGTTTTGCTATATACATTTACCTTTTAAGAGGAGGAAT”, the “cleaved RNA product abundance” value under setting [2] stood at 0.482. As for “ACAGACGAAGGAGCCGCACACAAGTTATTAAGGGATGAATAATCCCTCAATATAAATATCTCTCACTTATTTAAA”, the “cleaved RNA product abundance” value under setting [1] worked out at 0.483. Same read-out and setting: the result for “ACAGACGAAGGAGCCGCAAAGAAGTTATTCAGGGATAAATAATCCCTCAATATAAATATCTCTCACTTATTTAAA” reads 1.1. “CGACATGTCCCGCTTCTTTCATTAATCTGTTAGCAACTGTTATCCTATATACATTTACCTTTTAAGAGGAGGAAT”: the “cleaved RNA product abundance” value under setting [2] worked out at 0.577.

In the case of “ACAGACGAAGGAGCCGCAAAGAAGTTATTAAGGGGTGAATAATCCCTCAATATAAATATCTCTCACTTATTTAAA”, the “cleaved RNA product abundance” value under setting [3] stood at 0.652, the “cleaved RNA product abundance” value under setting [1] came to 0.741 and the “cleaved RNA product abundance” value under setting [4] came out at 0.741. On to “ACAGACGAAGGAGCCGCAAATAAGTTATTAAGGGATGAATAATCCCTCAATAAAAATATCTCTCACTTATTTAAA”, for which the “cleaved RNA product abundance” value under setting [1] amounted to 0.143. “CGACATGTCCCGCTTCTTTCATTAATCCGATAGCAACTGCTTTGCTATATACATTTACCTTTTAAGAGGAGGAAT”: the “cleaved RNA product abundance” value under setting [2] was determined as 0.492. On to “ACAGACGAAGGAGCCGCAAAGAAGTTATTAAGGGATGAAAAATCCCTCATTATAAATATCTCTCACTTATTTAAA”, for which the “cleaved RNA product abundance” value under setting [3] came to 0.226 and the “cleaved RNA product abundance” value under setting [1] was found to be 0.331. Take “CGACATGTCCCGCTTCTTTCATTACTCCGTTAGCAACTGTTTTGCTCTATACATTTACCTTTTAAGAGGAGGAAT”: under setting [2], the “cleaved RNA product abundance” value worked out at 0.288. For “ACAGACGAAGGAGCCGCAAAGAAGTTATTAAGGGCTGAATAAACCCTCAATATAAATATCTCTCACTTATTTAAA”, under setting [1], the “cleaved RNA product abundance” value came out at 0.47. Take “ACAGACGAAGGAGCCGCAAAGAAGTTATTAAGGCATGAATAATCCCTCAATATAAATATCTCTCACTTATTTAAA”: the “cleaved RNA product abundance” value was determined as 0.0901 under setting [3], 0.125 under setting [1] and 0.124 under setting [4]. In the case of “ACAGACGAAGGAGCCGCAAAGAAGTTATGAAGGGATGAATAATCCCTCAATATTAATATCTCTCACTTATTTAAA”, the “cleaved RNA product abundance” value under setting [1] is 0.125. On to “ACAGACGAAGGAGCCGCAAAGAAGTTATTAACGGATGAATAATCCCTCAATATAAATATCTCTCACTTATTAAAG”, for which the “cleaved RNA product abundance” value under setting [1] is 0.172. Turning to “ACAGACGAAGGAGCCGCAAAGAAGTGATTAAGGGATGAATAATCCATCAATATAAATATCTCTCACTTATTTAAA”, the “cleaved RNA product abundance” value under setting [3] came out at 0.27 and the “cleaved RNA product abundance” value under setting [1] was determined as 0.257. “CGACATGTCCCGCTTCTTTCATTAATCAGTTAGCAACTGTTTTACTATATACATTTACCTTTTAAGAGGAGGAAT”: under setting [2], the “cleaved RNA product abundance” value worked out at 0.611. On to “ACAGACGAAGGAGCCGCAAATAAGTTATTAAGGGATGAATAATCCCTCAATATAAATACCTCTCACTTATTTAAA”, for which the “cleaved RNA product abundance” value under setting [1] worked out at 0.538.
